pIC50: −log10 of the molar value.
Target: Human ALCAM (28–501)-6xhistidine tag (human) (UniProt Q13740)
Assay: ELISA; competition with CD6-Fc

Chain of Human ALCAM (28–501)-6xhistidine tag (human) (Q13740 28-501): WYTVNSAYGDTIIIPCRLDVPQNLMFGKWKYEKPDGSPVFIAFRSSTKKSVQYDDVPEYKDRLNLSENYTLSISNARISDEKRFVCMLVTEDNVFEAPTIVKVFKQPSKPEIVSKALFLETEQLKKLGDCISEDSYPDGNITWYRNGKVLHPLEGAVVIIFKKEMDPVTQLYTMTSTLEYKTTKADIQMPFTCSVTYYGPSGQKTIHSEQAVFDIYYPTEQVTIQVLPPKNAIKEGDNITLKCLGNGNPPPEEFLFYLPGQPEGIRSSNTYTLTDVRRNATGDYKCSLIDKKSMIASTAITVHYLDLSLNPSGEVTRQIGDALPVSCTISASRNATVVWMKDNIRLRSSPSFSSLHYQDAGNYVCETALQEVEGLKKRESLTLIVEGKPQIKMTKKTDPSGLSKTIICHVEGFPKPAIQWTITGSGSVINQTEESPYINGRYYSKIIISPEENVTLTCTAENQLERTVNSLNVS

pIC50: 8.25
Substance: mini-ab V2D7 (from UniProt P03069)
